We go through one substance from article PMC2943577.

Assay in all cases: tandem affinity purification with Western blot
For orientation: Immunoblotting shows a protein as a band on a membrane.

Assay [1] concerns the target TAP-tagged Ada2 (S. cerevisiae) (UniProt Q02336).
Assay [2] addresses TAP-tagged Esa1 (S. cerevisiae) (UniProt Q08649).
The target of assay [3] is TAP-tagged Spt7 (S. cerevisiae) (UniProt P35177).

Where only a bound is given, the exact number is not on record here.

UniProt P35177, sequence (P35177 whole entry): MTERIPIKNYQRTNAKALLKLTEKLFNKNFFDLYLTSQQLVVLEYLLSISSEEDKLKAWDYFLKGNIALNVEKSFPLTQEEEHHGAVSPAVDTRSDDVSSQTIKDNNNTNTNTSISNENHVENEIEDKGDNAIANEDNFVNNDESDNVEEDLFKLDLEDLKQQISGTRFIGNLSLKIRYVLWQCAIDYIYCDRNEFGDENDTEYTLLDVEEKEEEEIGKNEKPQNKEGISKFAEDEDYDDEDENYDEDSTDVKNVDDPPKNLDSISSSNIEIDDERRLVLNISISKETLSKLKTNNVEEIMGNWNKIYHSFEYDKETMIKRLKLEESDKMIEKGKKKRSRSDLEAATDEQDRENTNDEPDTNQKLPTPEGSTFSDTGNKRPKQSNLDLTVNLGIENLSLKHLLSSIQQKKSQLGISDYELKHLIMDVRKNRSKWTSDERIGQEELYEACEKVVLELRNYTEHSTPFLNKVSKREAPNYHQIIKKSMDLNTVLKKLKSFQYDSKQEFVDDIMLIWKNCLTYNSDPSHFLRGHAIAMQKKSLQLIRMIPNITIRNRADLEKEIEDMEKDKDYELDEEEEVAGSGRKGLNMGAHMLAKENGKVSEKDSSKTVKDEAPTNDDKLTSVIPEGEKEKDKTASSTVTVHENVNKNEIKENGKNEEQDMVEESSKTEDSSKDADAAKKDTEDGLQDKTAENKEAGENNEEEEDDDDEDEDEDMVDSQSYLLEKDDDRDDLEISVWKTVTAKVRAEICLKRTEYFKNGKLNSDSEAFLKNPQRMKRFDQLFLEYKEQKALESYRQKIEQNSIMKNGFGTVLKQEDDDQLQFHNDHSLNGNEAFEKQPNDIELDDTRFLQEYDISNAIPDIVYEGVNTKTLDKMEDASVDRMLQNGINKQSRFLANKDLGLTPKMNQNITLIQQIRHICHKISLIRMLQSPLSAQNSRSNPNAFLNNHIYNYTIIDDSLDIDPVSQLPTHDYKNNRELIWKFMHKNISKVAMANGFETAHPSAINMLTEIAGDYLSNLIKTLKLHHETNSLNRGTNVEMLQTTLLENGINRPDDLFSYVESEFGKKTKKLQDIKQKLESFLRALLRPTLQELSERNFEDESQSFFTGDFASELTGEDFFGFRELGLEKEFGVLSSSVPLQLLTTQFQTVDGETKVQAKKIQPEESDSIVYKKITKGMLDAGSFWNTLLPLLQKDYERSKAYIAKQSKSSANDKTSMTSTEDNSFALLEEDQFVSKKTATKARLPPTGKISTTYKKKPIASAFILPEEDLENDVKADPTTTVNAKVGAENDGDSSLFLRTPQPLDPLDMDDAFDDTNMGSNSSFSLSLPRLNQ
UniProt Q02336, sequence (Q02336 whole entry): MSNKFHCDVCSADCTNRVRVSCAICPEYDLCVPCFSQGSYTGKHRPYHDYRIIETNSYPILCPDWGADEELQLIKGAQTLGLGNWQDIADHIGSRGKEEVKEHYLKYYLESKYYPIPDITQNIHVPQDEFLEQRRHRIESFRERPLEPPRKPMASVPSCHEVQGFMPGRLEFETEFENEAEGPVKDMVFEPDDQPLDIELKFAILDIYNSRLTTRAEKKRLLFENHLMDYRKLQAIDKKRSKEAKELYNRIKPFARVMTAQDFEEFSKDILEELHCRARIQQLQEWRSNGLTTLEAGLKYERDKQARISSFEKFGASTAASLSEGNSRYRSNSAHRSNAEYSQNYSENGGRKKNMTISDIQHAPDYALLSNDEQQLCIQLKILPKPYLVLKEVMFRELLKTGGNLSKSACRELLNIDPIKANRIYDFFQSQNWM
UniProt Q08649, sequence (Q08649 whole entry): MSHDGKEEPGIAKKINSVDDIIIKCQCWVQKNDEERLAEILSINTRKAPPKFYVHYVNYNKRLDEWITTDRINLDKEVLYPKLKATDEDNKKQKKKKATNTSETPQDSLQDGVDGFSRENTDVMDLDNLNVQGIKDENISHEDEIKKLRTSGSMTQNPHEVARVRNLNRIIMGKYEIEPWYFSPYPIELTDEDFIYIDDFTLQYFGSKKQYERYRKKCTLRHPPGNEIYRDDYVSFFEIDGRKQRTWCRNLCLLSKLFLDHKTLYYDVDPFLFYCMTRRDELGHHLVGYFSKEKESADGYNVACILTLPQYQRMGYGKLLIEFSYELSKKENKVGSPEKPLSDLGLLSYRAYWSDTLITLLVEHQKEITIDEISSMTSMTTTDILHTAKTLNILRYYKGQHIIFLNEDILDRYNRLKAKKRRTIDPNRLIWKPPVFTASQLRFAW

In turn, myc9-Tra1-G3745, P38811 1-3744 displayed an interaction against wild-type Tra1, percent (reduced to or by is not clear) in assay [1] of 70%. For the same substance, the amount co-purifying, percent of that found for wild-type Tra1 in assay [2] and in assay [3] was below 5% in each case.
